{
  "source": "patent US11033499B2",
  "about": "“Tablet formulation comprising a GLP-1 peptide and a delivery agent” (priority 2012, dated 2021)",
  "origin": "cited, not measured here",
  "conditions": "published studies with SNAC and human GLP-1",
  "data": [
    {"substance": "human GLP-1: human GLP-1 given with SNAC in published studies", "values": [
      {"measurement": "Tmax", "result": "20 to 30", "unit": "min"}
    ]}
  ]
}
